{"source": "patent US4829052A", "about": "“Serine protease inhibitors” (Monsanto Company, priority 1987, dated 1989)", "key": {"bovine chymotrypsin": {"target": "bovine chymotrypsin (Bos taurus, UniProt P00766)", "assay": "Chymotrypsin assay (spectrophotometric, p-nitroanilide substrate)", "format": "biochemical", "settings": "inhibitor/protease ratio between about 10/1 and 50/1", "experimental": "The inhibitory activity of the polypeptides of the present invention can be easily assayed using in vitro assays. In these types of spectrophotometric assays the activity of the serine protease is measured toward an appropriate p-nitroanilide substrate in the presence and absence of the peptide inhibitor. The enzyme catalyzed hydrolysis of the peptide p-nitroanilide substrate produces p-nitroanaline which results in an increase in absorbance which is monitored in the range of 405 to 410 nm. The rate of increase in absorbance is a measure of the enzymatic activity and the decrease in this rate relative to a suitable control is used to ascertain inhibition. The general assay procedure and details of the particular assays employed in the examples are provided in the Appendix following the examples. It is also possible to test the polypeptides in a functionally oriented assay that emulates in vivo conditions. Such an inhibition assay for elastase is also described in the Appendix.\nGeneralized Protocol Spectrophotometric Assays:\n(1) Pipette 100 μl of enzyme solution into a disposable polystyrene cuvette (1 cm optical path length).\n(2) Add (1900-X) μl of bufferto the cuvette, where X is the volume of test solution in microliters that is added in the next step.\nAdd X μl of test solution to the cuvette, where X ranges from 0 μl for the control to a maximum of about 500 μl. Incubate the solution for a period of 1 to 5 minutes at ambient temperature.\n(4) Add 100 μl of substrate solution to the cuvette. Mix the contents by covering the cuvette with a piece of paraffin film and repeatedly inverting for a period of 5 to 15 seconds.\n(5) Record the change in absorbance for about 5 minutes at either 405 or 410 nm, depending on the assay, with a spectrophotometer equipped with a suitable recording device.\nThe percent inhibition is calculated from the formula [formula] where (ΔA/min) is the initial rate of absorbance change.\n(7) For more accurate quantitative determinations temperature control of the cuvette holders and the reagent solutions can be instituted.\n(8) The test solution can be crude oxidized peptide prepared as described above, fractions from a chromatographic separation or purified polypeptides.\n(A) Buffer solution - triethanolamine buffer- See trypsin assay.\n(B) Substrate Solution - Dissolve 25 mg of 3-carbomethoxypropionyl-L-arginyl-L-prolyl-L-tyrosine p-nitroanilide (Product No. S-2586, KabiVitrum AB, Stockholm, Sweden) in 23.6 ml of water\n(C) Enzyme solution - Dissolve 1 mg of bovine chymotrypsin in 4 ml of 0.001N HCl. Prepare the final dilution by combining 0.1 ml of the stock chymotrypsin solution and 10 ml of 0.001N HCl. Store on ice or at 4° C.\nProcedure: Use the above solutions in the general protocol\n(2) See note 1 of the cathepsin G assay.\n(3) 0.1M Tris-HCl, pH 7.8, 20 mM CaCl2, 0.05% triton X-100 can be substituted for the triethanolamine buffer."}, "[1]": {"target": "T1, purified human elastase (HE) (Homo sapiens, UniProt P08246)", "T1 sequence (P08246 30-267)": "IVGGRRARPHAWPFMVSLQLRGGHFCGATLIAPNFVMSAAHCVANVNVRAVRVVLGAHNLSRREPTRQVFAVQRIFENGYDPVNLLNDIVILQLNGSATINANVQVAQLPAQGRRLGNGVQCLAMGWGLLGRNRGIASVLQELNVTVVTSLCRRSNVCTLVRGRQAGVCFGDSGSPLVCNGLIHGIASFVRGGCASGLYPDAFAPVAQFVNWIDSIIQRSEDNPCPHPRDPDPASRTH", "assay": "125I-Fibronectin assay with purified human elastase", "format": "biochemical", "settings": "enzyme concentration 4 nM, FIG. 3", "quoted_text": "This assay is designed to model the degradation of connective tissue. […] Briefly, purified human plasma fibronectin (fn) is radiolabeled with ^125 I using Enzymobeads and conventional procedures. The desalted is diluted with fn to yield ca. cpm/ug. This material is further diluted with pH 9.6 barbital buffer and 200 ul (30 ug fn, 50000 cpm) is pipetted into the wells of a flat bottomed 96 well microtiter plate. The plates are dried for about 24 hours at 37° C. and unbound fn is removed with 2 washes of phosphate buffered saline (PBS). The plates are stored at 4° C. and are stable for at least 2 weeks.\nFor an assay each coated well is filled with a total volume of 200 μl. All measurements are carried out at optimal pH and buffer conditions. After addition of proteolytic activity with or without inhibitor the plate is incubated at 37° C. for 3 hours. The well contents are centrifuged and a 100 μl aliquot is counted for 1251gamma radiation. Some assays employed elastase activity derived from freshly prepared neutrophils (PMN). ln this case an activating agent to stimulate the PMN is present in the well and the PMN is added last. A standard curve showing the linearity of the response to the amount of purified human elastase (HE) added is obtained concurrently with each assay."}, "[2]": {"target": "T2, PMN-derived human elastase activity (Homo sapiens, UniProt P08246)", "T2 construct": "Some assays employed elastase activity derived from freshly prepared neutrophils (PMN); endogenous in cells; host or cells: freshly prepared, stimulated neutrophils (PMN)", "T2 sequence (P08246 30-267)": "T1 sequence (P08246 30-267)", "assay": "125I-Fibronectin assay with stimulated PMN as source of elastase activity", "format": "cell-based", "settings": "HLE equivalent of 4 nM, FIG. 3", "quoted_text": "The data points represent the mean of several (n=3 to 9) replicates compared to the control that contained no inhibitor.\nThis assay is designed to model the degradation of connective tissue. The assay is carried out essentially as described by Campbell, et al. (J. Clin. Invest., 1982, 70:845-52). Briefly, purified human plasma fibronectin (fn) is radiolabeled with ^125 I using Enzymobeads and conventional procedures. The desalted is diluted with fn to yield ca. cpm/ug. This material is further diluted with pH 9.6 barbital buffer and 200 ul (30 ug fn, 50000 cpm) is pipetted into the wells of a flat bottomed 96 well microtiter plate. The plates are dried for about 24 hours at 37° C. and unbound fn is removed with 2 washes of phosphate buffered saline (PBS). The plates are stored at 4° C. and are stable for at least 2 weeks.\nFor an assay each coated well is filled with a total volume of 200 μl. All measurements are carried out at optimal pH and buffer conditions. After addition of proteolytic activity with or without inhibitor the plate is incubated at 37° C. for 3 hours. The well contents are centrifuged and a 100 μl aliquot is counted for 1251gamma radiation. Some assays employed elastase activity derived from freshly prepared neutrophils (PMN). ln this case an activating agent to stimulate the PMN is present in the well and the PMN is added last. […]"}, "purified HE": {"target": "T3, purified HE (Homo sapiens, UniProt P08246)", "T3 sequence (P08246 30-267)": "T1 sequence (P08246 30-267)", "assay": "3H-Elastin assay with purified HE", "format": "biochemical", "settings": "FIG. 4", "experimental": "The inhibition of elastolysis by peptide 8 was investigated using the ^3 H-elastin assay and purified HE.\nAnother, yet less sensitive, assay employs radiolabelled elastin as the solid substrate in order to imitate degradation of connective tissue.\nRadiolabeling of bovine neck ligament elastin is carried out with tritiated sodium borohydride as described by Stone, et al. (Anal. Biochem., 1977, 80:572-577). Elastin coated microtiter plates are prepared essentially as described above for the fibronectin plates. The assay is run similarly except that the supernatant is added to a scintillation cocktail for counting. The linearity of the responses to purified HE is also tested."}}}
{"substance": "RVCPVILMKCKKDSDCLAECVCLEHGYCG (RVCPVILMKCKKDSDCLAECVCLEHGYCG) [Peptide 8]", "values": [{"measurement": "Inhibitory Activity Chymotrypsin", "setting": "bovine chymotrypsin", "result": "- (Represents less than 10% inhibition)"}, {"measurement": "inhibition of 125I fibronectin degradation", "setting": "[1]", "result": "nearly the same inhibitory profile against purified human elastase (HE) and PMN-derived HE activity"}, {"measurement": "inhibition of 125I fibronectin degradation", "setting": "[2]", "result": "nearly the same inhibitory profile against purified human elastase (HE) and PMN-derived HE activity"}, {"measurement": "inhibition of elastolysis", "setting": "purified HE", "result": "equally effecive for these two connective tissue substrates"}]}
